T1: human FXII (Homo sapiens, UniProt P00748)
T1 construct: plasma purified human FXII and FXIIa proteins (Enzyme Research Laboratories); purchased Enzyme Research Laboratories 1212; host or cells: human plasma (said of the same vendor's proteins used as immunogen)
T1 sequence (P00748 20-615): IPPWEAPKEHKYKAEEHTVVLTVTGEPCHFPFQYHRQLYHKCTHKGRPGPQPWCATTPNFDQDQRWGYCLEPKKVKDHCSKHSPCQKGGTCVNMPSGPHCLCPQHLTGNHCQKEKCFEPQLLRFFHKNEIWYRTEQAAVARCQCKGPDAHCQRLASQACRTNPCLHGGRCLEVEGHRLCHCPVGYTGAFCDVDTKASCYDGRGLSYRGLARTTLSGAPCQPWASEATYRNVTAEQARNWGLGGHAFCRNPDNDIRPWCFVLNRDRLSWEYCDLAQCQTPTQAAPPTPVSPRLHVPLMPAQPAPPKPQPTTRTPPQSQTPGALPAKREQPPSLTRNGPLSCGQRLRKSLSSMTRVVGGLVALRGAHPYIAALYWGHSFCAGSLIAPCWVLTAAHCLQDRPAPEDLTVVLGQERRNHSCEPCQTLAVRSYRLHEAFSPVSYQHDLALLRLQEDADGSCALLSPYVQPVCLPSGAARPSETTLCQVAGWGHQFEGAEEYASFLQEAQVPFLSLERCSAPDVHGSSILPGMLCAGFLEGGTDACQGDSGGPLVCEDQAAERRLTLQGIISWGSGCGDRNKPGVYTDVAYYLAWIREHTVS

B1: mAb26036: fully human anti-FXII/FXIIa monoclonal antibody, HCVR/LCVR SEQ ID NOs: 2/10 (antibody, V domains shown)
VH: QVQLVQSGAEVKKPGASVTVSCKASGYTFTSYYLHWVRQAPGQGLEWMGIINPSGGSTSYAQKFQGRVTMTRDTSTSTVYMELSSLRSEDTAVYYCARGVTTVTTYYHYYNMDVWGQGTTVTVSS
VL: DIQMTQSPSSLSASVGDRVTITCRASQGISNYLAWFQQKPGKAPKSLIYAASSLQSGVPSKFSGSGSGTDFTLTISSLQPEDFATYYCQKYNTYPLTFGGGTKVEIK
B2: mAb26048: fully human anti-FXII/FXIIa monoclonal antibody, HCVR/LCVR SEQ ID NOs: 18/26 (antibody, V domains shown)
VH: EVQLVESGGGLVQPRGSLRLSCVASGFTFSDYGMSWVRQAPGKGLEWVSVIGGAGHGTYYADSVKGRFTISRDNSRNTLYLQMNSLRDEDTAVYYCAKKYYWNYVGGMDVWGRGTTVTVSS
VL: DIQMTQSPSSVSASVGDRVTITCRASQDINNWLAWYQQKPGKAPKLLISTASSLQSGVPSRFSGSGSGTDFTLTISSLQPEDFATYYCQQANSLPFTFGPGTKVDIK
B3: mAb26049: fully human anti-FXII/FXIIa monoclonal antibody, HCVR/LCVR SEQ ID NOs: 34/42 (antibody, V domains shown)
VH: EVQLVESGGDLVQPGGSLRLSCAASGFTFNTYAMHWVRQAPGKGLEYISAIDTKGGSTYYADSVKGRFTISRDNSKNAQYLQMDSLRVEDMAVYYCARGFGLDVWGQGTTVTVSS
VL: DVVMTQSPLSLAVTLGQPASISCRSSQSLGYSDGNTYLNWFQQRPGQSPRRLIYKVSNRDSGVPDRFSGSGSGTDFTLKINRVETVDVGVYYCMQATHWPYTFGQGTKLEIK

These molecules were tested against T1, human FXII (assay: Surface plasmon resonance (Biacore 4000) binding kinetics, hFXII). Conditions: 25° C.
Procedure: Equilibrium dissociation constant (KD) for different FXII reagents binding to purified anti-FXII monoclonal antibodies were determined using a real-time surface plasmon resonance based Biacore 4000 biosensor. All binding studies were performed in 10 mM HEPES, 300 mM NaCl, and 0.05% v/v Surfactant Tween-20, pH 7.4 (HBS-P) running buffer at 25° C. and 37° C. The Biacore CM5 sensor chip surface was first derivatized by amine coupling with the mouse anti-human Fc specific monoclonal antibody (GE Healthcare Cat #BR100839) to capture anti-FXII monoclonal antibodies. Binding studies were performed on human FXII and FXIIa (Enzyme Research Laboratories, Cat #1212 and 1212a, respectively). Different concentrations of hFXII and hFXIIa (50 nM-3.125 nM; 2-fold serial dilution) were first prepared in HBS-P running buffer and were injected over anti-human Fc captured anti-FXII monoclonal antibody surface for 3 minutes at a flow rate of 30 uL/minute, while the dissociation of monoclonal antibody bound FXII reagent was monitored for 5 minutes in HBS-P running buffer. The association rate (ka) and dissociation rate (kd) were determined by fitting the real-time binding sensorgrams to a 1:1 binding model with mass transport limitation using Scrubber 2.0c curve-fitting software. Binding dissociation equilibrium constant (KD) and dissociative half-life (t½) were calculated from the kinetic rates as: […]

**Q.** For B1, which Kd is on record?
**A.** The Kd was 3.12 nM.

**Q.** What about the ka of the same molecule?
**A.** The ka was 76300 M⁻¹ s⁻¹.

**Q.** What about the kd of the same molecule?
**A.** Its kd is 0.000238 s⁻¹.

**Q.** And the t½?
**A.** Its t½ is 48.5 min.

**Q.** With B2 as the molecule, how does the Kd read?
**A.** The Kd was 0.879 nM.

**Q.** And the ka?
**A.** Its ka is 361000 M⁻¹ s⁻¹.

**Q.** And the kd?
**A.** Its kd is 0.000317 s⁻¹.

**Q.** And the t½?
**A.** The t½ was 36.5 min.

**Q.** For B3, which Kd is on record?
**A.** Its Kd is 2.74 nM.

**Q.** And the ka?
**A.** The ka was 90100 M⁻¹ s⁻¹.

**Q.** And the kd?
**A.** The kd was 0.000247 s⁻¹.

**Q.** What about the t½ of the same molecule?
**A.** The t½ was 46.7 min.

Same assay, conditions: 37° C.

**Q.** With B1 as the molecule, how does the Kd read?
**A.** The Kd was 4.62 nM.

**Q.** What about the ka of the same molecule?
**A.** Its ka is 121000 M⁻¹ s⁻¹.

**Q.** What about the kd of the same molecule?
**A.** The kd was 0.00056 s⁻¹.

**Q.** And the t½?
**A.** Its t½ is 20.6 min.

**Q.** Which Kd does the source give for B2 here?
**A.** The Kd was 2.53 nM.

**Q.** And the ka?
**A.** Its ka is 276000 M⁻¹ s⁻¹.

**Q.** What about the kd of the same molecule?
**A.** The kd was 0.000698 s⁻¹.

**Q.** What about the t½ of the same molecule?
**A.** Its t½ is 17 min.

**Q.** How did the Kd turn out when B3 was run?
**A.** The Kd was 8.78 nM.

**Q.** What about the ka of the same molecule?
**A.** Its ka is 87000 M⁻¹ s⁻¹.

**Q.** What about the kd of the same molecule?
**A.** Its kd is 0.000764 s⁻¹.

**Q.** What about the t½ of the same molecule?
**A.** Its t½ is 15 min.

What follows are molecules tested on Extrinsic and Common pathways of the coagulation cascade (assay: Prothrombin Time (PT) in pooled normal human plasma). Conditions: dash cells; dose up to 4 uM.
Type: biochemical
Source text: This Example describes the inhibitory activity of selected antibodies, as determined by four functional plasma assays: 1) Activated Partial Thromboplastin Time (aPTT), 2) Prothrombin Time (PT), 3) Thrombin Generation Assay (TGA) triggered by ellagic acid and 4) TGA triggered by Tissue Factor. The aPTT test evaluates all clotting factors of the Intrinsic and Common pathways of the coagulation cascade by measuring time for a clot to form after the addition of calcium and ellagic acid, whereas the PT test evaluates all clotting factors of the Extrinsic and Common pathways of the coagulation cascade after the addition of calcium and Tissue Factor. The TGA triggered by ellagic acid measures the rate and amount of thrombin generated via the Intrinsic and Common pathways whereas TGA triggered by Tissue Factor measures the rate and amount of thrombin generated via the Extrinsic and Common pathways.
The PT was determined on Diagnostica Stago STart4 Hemostasis Analyzer in the following manner. A total of 50 ul of pooled normal human plasma was added to a cuvette at 37° C. After 1 min, 5 ul of a 2× serially diluted test article (antibody or small molecule inhibitor) in PBS was added to the cuvette and allowed to incubate for 5 min. Then 100 ul of Tissue Factor (TriniCLOT PT Excel, Diagnostica Stago) was added to start the reaction. The measured clot time for the test article concentration was normalized to baseline (no drug) plasma clot time and plotted against log molar concentration of the test article. The results were analyzed using nonlinear regression (4-parameter logistics) with Prism 5 software (GraphPad) to obtain doubling time concentration.

**Q.** With B1 as the molecule, how does the “C2xt of Prothrombin Time (PT) - Extrinsic Pathway” value (shortened to “C2xt of Prothrombin Time (PT)”) read?
**A.** Its value is “— (no inhibitory effect on clotting time with a dose up to 4 uM)”.

**Q.** Which “C2xt of Prothrombin Time (PT)” value does the source give for B2 here?
**A.** Its value is “— (no inhibitory effect on clotting time with a dose up to 4 uM)”.

**Q.** For B3, which “C2xt of Prothrombin Time (PT)” value is on record?
**A.** The value was “— (no inhibitory effect on clotting time with a dose up to 4 uM)”.

Same assay, conditions: dose response curves, pooled normal human plasma

**Q.** For B1, which “effect on plasma PT (in words)” value is on record?
**A.** The value was “without increasing PT”.

**Q.** How did the “effect on plasma PT (in words)” value turn out when B2 was run?
**A.** Its value is “without increasing PT”.

**Q.** For B3, which “effect on plasma PT (in words)” value is on record?
**A.** The value was “without increasing PT”.

Target: T1, human FXII
Assay: Surface plasmon resonance (Biacore 4000) binding kinetics, hFXII
Conditions: 25° C.
Remark: another data set of the same source

**Q.** Which “100 nM Ag Bound (RU)” value does the source give for B1 here?
**A.** Its value is 146.2 RU.

**Q.** B2 was tested. Which “100 nM Ag Bound (RU)” value did it give?
**A.** Its value is 327.5 RU.

**Q.** B3 was tested. Which “100 nM Ag Bound (RU)” value did it give?
**A.** The value was 134.6 RU.

Same assay, conditions: 37° C.

**Q.** For B1, which “100 nM Ag Bound (RU)” value is on record?
**A.** Its value is 272.3 RU.

**Q.** B2 was tested. Which “100 nM Ag Bound (RU)” value did it give?
**A.** The value was 400.6 RU.

**Q.** B3 was tested. Which “100 nM Ag Bound (RU)” value did it give?
**A.** Its value is 178.5 RU.

Source: patent US12068729B2, “Anti-factor XII/XIIa antibodies and uses thereof” (Regeneron Pharmaceuticals, Inc., priority 2018, dated 2024)
